Experimental data from patent publication US20100243450, “NON-EQUILIBRIUM CAPILLARY ELECTROPHORESIS OF EQUILIBRIUM MIXTURES (NECEEM)-BASED METHODS FOR DRUG AND DIAGNOSTIC DEVELOPMENT” (published 2010).

How the values were obtained:
[1] = target: T1, SSB (single-stranded DNA-binding protein) (UniProt P0AGE0 P0AGE0:2-178); assay: NECEEM run buffer 25 mM tetraborate pH 9.4 with 100 nM SSB; fully double-stranded, not bound; settings: chain copies: 4; label: 5'-fluorescein on DNA-1; duplex without single-stranded overhang
T1 sequence (P0AGE0 2-178, one chain of several): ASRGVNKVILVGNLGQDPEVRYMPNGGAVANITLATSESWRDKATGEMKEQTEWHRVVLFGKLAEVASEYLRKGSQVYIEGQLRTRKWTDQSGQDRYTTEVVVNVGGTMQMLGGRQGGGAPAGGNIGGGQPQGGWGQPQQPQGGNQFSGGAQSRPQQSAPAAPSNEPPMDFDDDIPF

[2] = target: T1, SSB (single-stranded DNA-binding …); assay: NECEEM run buffer 25 mM tetraborate pH 9.4 with 100 nM SSB; binds via single-stranded overhang; settings: chain copies: 4; label: 5'-fluorescein on DNA-1; duplex with 10-nt single-stranded overhang
[3] = target: T1, SSB (single-stranded DNA-binding …); assay: NECEEM; 25 mM tetraborate pH 9.4, incubated at room temperature; koff 3.3e-2 s-1, kon 1.2e5 M-1 s-1; settings: chain copies: 4; label: 5'-fluorescein
Description: SSB and a fluorescently-labeled 15-mer ssDNA oligonucleotide, 5′-fluorescein-[…] ([…]) were used in this example (Berezovski and Krylov J. Amer. Chem. Soc. 2002, 124, 13674). NECEEM separation of protein-DNA complexes was performed using a laboratory-built CE instrument with fluorescence detector described in detail elsewhere (Wu and Dovichi J. Chromatogr. 1989, 480, 141). A 488 nm line of an Argon-ion laser was utilized to excite the fluorescence of the DNA. Uncoated fused silica capillaries of 40 cm×20 μm I.D.×150 μm O.D. were used. The electrophoresis was run with a positive electrode at the injection end biased at +24 kV. The run buffer for NECEEM was 25.0 mM tetraborate at pH 9.4. The samples were injected into the capillary by a pressure pulse of 1 s×9.1 kPa; the length of corresponding sample plug was 0.93 mm as was calculated using the Poiseulle equation (Krylov et al. Anal. Chem. 2000, 72, 872). The capillary was rinsed with the run buffer solution for 2 minutes prior to each run. At the end of each run, the capillary was rinsed with 100 mM NaOH for 2 minutes, followed by a rinse with deionized water for 2 minutes.
Equilibrium mixtures of SSB, fDNA and SSB•fDNA complex were prepared by mixing solutions of 16 μM SSB and 205 nM fDNA in the run buffer at a desired volume ratio and incubating them at room temperature to reach equilibrium prior to the analysis. […]

B1: DNA-1/DNA-3/DNA-2 hybrid (dsDNA)
DNA 1: GCGGAGCGTGGCAGG
DNA 2: CCTGCCACGCTCCGCTCTAAAAATAA
DNA 3: TTATTTTTAG
[1]
  binding result: no binding

B2: DNA-1/DNA-3 hybrid (mixed)
DNA 1: GCGGAGCGTGGCAGG
DNA 2: CCTGCCACGCTCCGCTCTAAAAATAA
[2]
  binding result: binds

## GCGGAGCGTGGCAGG (ssDNA) [fDNA 15-mer (DNA-1)]
[3]
  Kd: 280 nM
